# From patent publication US8822640B2, “Tetrameric streptavidin mutein with reversible biotin binding capability” (UTI Limited Partnership, priority 2011, dated 2014)
# B1: SAV mutein from Roche: commercially available streptavidin mutein with reversible biotin binding, changes S27R, S45R and L110W (U.S. Pat. No. 6,312,916 B1) (protein)
# chain: AEAGITGTWYNQLGRTFIVTAGADGALTGTYERAVGNAESRYVLTGRYDSAPATDGSGTALGWTVAWKNNYRNAHSATTWSGQYVGGAEARINTQWLWTSGTTEANAWKSTLVGHDTFTKVKPSAAS
# Legend:
# [1] = data from U.S. Pat. No. 6,312,916 B1, cited from earlier work
# [2] = test system: biotinylated protein G and biotinylated IgG; assay: Mutein-agarose affinity matrix: purification of biotinylated proteins, matrix stability and reuse; conditions: comparison of FIGS. 7 and 10
# Procedure: Other methods. BIAcore biosensor for determining the kinetic parameters, preparation of streptavidin-agarose matrix and purification of biotinylated proteins were performed as previously described (Wu and Wong, 2005a; Wu and Wong, 2005b).
# Stable subunit interactions in the 8-aa-loop-H127 mutein. The purified 8-aa-loop-H127C mutein can be immobilized to the agarose matrix with an estimated concentration of 3.8 mg/ml of settled agarose beads. […] Since it is likely that only one subunit in an tetrameric 8-aa-loop-H127C mutein was chemically coupled to the matrix (the other three subunits associated with the immobilized subunit via non-covalent interactions), this observation illustrates that the subunit interactions between the subunits in the tetrameric 8-aa-loop-H127C mutein were stable enough and the non-covalently associated subunits were not washed off from the column under the conditions used for the binding, washing and elution processes.
# Application of the 8-aa-loop-H127C mutein-agarose matrices for purification of biotinylated protein G and biotinylated IgG. […] The bound biotinylated proteins could be eluted off from the column using 4 mM biotin (FIGS. 7 and 8).
# [3] = Biotin binding data taken from literature / U.S. Pat. No. 6,312,916 B1; conditions: for t1/2, half-life of biotin in the SAV-biotin complex: estimated as 0.693/koff/60 from the cited koff
molecule,measurement,setting,value
B1,ka or kon,[1],45000 M⁻¹ s⁻¹
same,kd or koff,[1],0.0059 s⁻¹
same,Kd,[1]; read-out: Kd (biotin binding affinity),130 nM
same,binding capacity of the matrix for biotinylated protein G,[2],significantly less than that of the 8-aa-loop-H127C mutein
same,"t1/2, half-life of biotin in the SAV-biotin complex",[3],1.96 min
same,"t1/2, half-life of biotin in the SAV-biotin complex",[3]; listed as Roche mutein,1.9 min
same,biotin binding affinity lower than that of the 8-aa-loop-H127C mutein,[3]; ratio of Kd values,~10 fold
same,half-life of biotin in the SAV-biotin complex shorter than that of the 8-aa-loop-H127C mutein,[3]; ratio of t1/2 values,~14 fold
